This is an account of results in patent US6790824B1, “Cytokines having neurotrophic activity” (Biopharm Gesellschaft zur biotechnologischen Entwicklung …, priority 1997, dated 2004).

For experiment [1], the system named is embryonic chicken dorsal root ganglia (DRG) neurons. As to the kind of experiment: Survival of dissociated embryonic chick dorsal root ganglia (DRG) neurons, 48 h, counting of surviving neurons. Particulars: for survival promoting effect of the single factor: factor added alone, dose-response; for survival effect as share of the (maximal) NGF effect: single factor; for survival of DRG neurons in combination with NGF: NGF 10 ng/ml (saturating); for survival of DRG neurons in combination with NT-3: NT-3 10 ng/ml (saturating); for effect on DRG neuron survival when added together with GDF-5: factor at saturating concentration plus GDF-5 20 ng/ml. The format is cell-based. How it is done:
Dissociated cultures of embryonic chicken dorsal root ganglia (DRG) were generated as described in details by Krieglstein and Unsicker (Neurochem. Res., 21(7) (1996) 843-850). Briefly, DRGs from white Leghorn chick embryos (day 8) were dissected in Ca^2+-Mg^2+ free Hanks' balanced salt solution. After incubation in 0.08% trypsin for 15 min ganglia were dissociated by trituration. Cells were seeded in polyomithin-laminin coated 96-well microtiter plates (A/2 Costar) at a density of 1,200 cells/well. Growth factors were applied at the time of plating in a final volume of […] Dulbecco's Modified Eagle's Medium supplemented with 0.25% bovine serum albumin, N1 additives and 100 U/ml penicillin. As a positive control, nerve growth factor (NGF) was used at the saturating concentration of 5 ng/ml. After 48 h of incubation at 37° C. in a humidified atmosphere containing 5% CO2, cultures were fixed with 2.5% glutaraldehyde. Neuronal cells were identified by their phase-bright and neurite-bearing morphologies and counted within 30% of the total surface area using phase contrast microscopy. In the first set of experiments we tested the survival promoting effect of several growth factors of the bone morphogenetic protein family.
(§1) Embryonic chick ciliary (CG), dorsal root (DRG), and sympathetic (SG) ganglia at embryonic day(s) (E) 8, 10, and 12, were dissected, freed from nerve roots and connective tissue and collected in CME. Ganglia were incubated in trypsin (ICN), washed and dissociated by trituration using fire-polished Pasteur pipettes. Cultures were set up in 96-well microtiter plates (Costar, A/2), precoated with poly-L-ornithine and laminin at a density of 1,200-1,500 cells/well in DMEM supplemented with N1 additives, 0.25% BSA, and 0.1% PSN (DME/N1) and incubated at 37° C. in a 5% CO2 incubator.
(§2) At appropriate times (CG: 24 h, DRG: 48 h, SG: 72 h) cultures were fixed by addition of 2.5% glutardialdehyde in phosphate buffered saline (PBS). Numbers of surviving neurons were determined by direct counting of 30% of the surface area using phase contrast microscopy.
Dissociated cultures of embryonic chicken dorsal root ganglia (DRGs) were generated as described in details by Krieglstein and Unsicker (Dev. Brain. Rees. 93 (1996) 10-17). Briefly, DRGs were dissected in Ca^2+-Mg^2+ free Hank's balanced salt solution (CMF). After incubation in 0.08% trypsin (BioWhittaker) for 15 min, ganglia were dissociated by gentle trituration using fire-polished Pasteur pipettes. Cells in suspension (neuron/non-neuron ratio 1:2) were seeded in polyomithin-laminin coated 96-well microtiter plates (A/2 Costar) at a density of 1,200 cells/well. Growth factors were applied at the time of plating in a final volume of 50 μl Dulbecco's Modified Eagle's Medium supplemented with 0.25% bovine serum albumin, N1 additives (Bottenstein et al., Exp. Cell Res. 125 (1980) 183-190) and 100 U/ml penicillin. As a positive control, nerve growth factor (NGF) was used at the saturating concentration of 10 ng/ml. After 48 h of incubation at 37° C. in a humidified atmosphere containing 5% CO2, cultures were fixed with 2.5% glutaraldehyde in phosphate buffered saline (PBS). Neuronal cells were identified by their phase-bright and neurite-bearing morphologies and counted within 30% of the total surface area using phase contrast microscopy. All experiments were performed in at least triplicate in two independent experiments. Data are presented as mean±SEM. Statistical comparisons were made with student's double t-test, ANOVA and MicrocalOrigin software. Differences were considered statistically significant at *P<0.05, **P<0.01, **P<0.001.

Experiment [2] deals with chick ciliary ganglionic (CG) neurons. In words: Survival of embryonic chick ciliary ganglionic (CG) neurons, 24 h, counting of surviving neurons. As to conditions: for CG neuron survival with further addition of TGF-β: TGF-β 2.5 ng/ml, CNTF non-saturating, OSM, LIF, IL-6 at 10 ng/ml. It counts as cell-based. The protocol: as §1, §2
Phosphatidylinositol-specific phospholipase C (PIPLC) is an enzyme that specifically cleaves glycosyl-phosphatidylinositol (GPI) linkages. Embryonic chick ciliary ganglionic neurons (E8) were isolated and seeded as described before. Neurons were incubated for 1 h at 37° C. with 1) 100 mU PIPLC or II) 100 mU PIPLC+2 ng/ml TGFβ or III) without enzyme and then growth factors were added. The number of surviving neurons was determined 24 h later.

Entries after “also recorded” stand apart in the source; their conditions may differ.

B1: GDF-5: bone morphogenetic protein like molecule, member of the TGF-β superfamily (protein, UniProt P43026 382-501, looked up)
Growth/differentiation factor …: APLATRQGKRPSKNLKARCSRKALHVNFKDMGWDDWIIAPLEYEAFHCEGLCEFPLRSHLEPTNHAVIQTLMNSMDPESTPPTCCVPTRLSPISILFIDSANNVVYKQYEDMVVESCGCR
On to B1, for which, in experiment [1] (E8 chick DRG, 48 h), the “neuronal numbers, GDF-5 and NT-3 both at saturating concentrations” value is given as “failed to increase neuronal numbers significantly above the levels of each single factor”; the “survival promoting effect of the single factor” value (from here on “survival promoting effect”) is “promoted the survival of a very small neuron population”; the “survival effect as share of the (maximal) NGF effect” value (from here on “survival effect as share”) was “about 20%”. Also, the “increase in neuronal cell numbers” value in experiment [1] (E8 chick DRG, 48 h, saturating concentration of 20 ng/ml, vs untreated) is on record as “approximately two-fold”. The “neuronal cell numbers, GDF-5 added to NGF” value in experiment [1] (GDF-5 20 ng/ml plus NGF 5 ng/ml, E8, 48 h) is given as “significantly increased neuronal cell numbers above values obtained for each single factor”. Moreover, in experiment [1] (E8, 48 h), the “survival of DRG neurons in combination with NGF” value (“survival … with NGF” for short) was “significantly increased survival of DRG neurons beyond levels maintained by the single factors” and the “survival of DRG neurons in combination with NT-3” value (“survival … with NT-3” below) is “significantly augmented the promoting effect of NT-3”. Also, the “DRG neuron survival with addition of NT-3” value in experiment [1] (various concentrations of GDF-5 plus 2.5 ng/ml NT-3, E8, 48 h) is recorded as “significantly increased DRG neuron survival above the NT-3 level”.

B2: BMP-12: rh BMP-12, bone morphogenetic protein (protein, UniProt Q7Z4P5 322-450, looked up)
Growth/differentiation factor …: TALAGTRTAQGSGGGAGRGHGRRGRSRCSRKPLHVDFKELGWDDWIIAPLDYEAYHCEGLCDFPLRSHLEPTNHAIIQTLLNSMAPDAAPASCCVPARLSPISILYIDAANNVVYKQYEDMVVEACGCR
With B2, the “survival promoting effect” value in experiment [1] (E8 chick DRG, 48 h) is reported as “significant effect; also recorded: promoted the survival of a very small neuron population”. Also, in experiment [1] (E8, 48 h), the “survival … with NGF” value was “significantly increased survival of DRG neurons beyond levels maintained by the single factors” and the “survival … with NT-3” value is “significantly augmented the promoting effect of NT-3”.

B3: BMP-4: rh BMP-4, bone morphogenetic protein (protein, UniProt P12644 293-408, looked up)
Bone morphogenetic protein 4: SPKHHSQRARKKNKNCRRHSLYVDFSDVGWNDWIVAPPGYQAFYCHGDCPFPLADHLNSTNHAIVQTLVNSVNSSIPKACCVPTELSAISMLYLDEYDKVVLKNYQEMVVEGCGCR
Consider B3, for which the “survival effect as share” value in experiment [1] (E8 chick DRG, 48 h) is on record as “approximately 35%”. Further, the “survival … with NGF” value in experiment [1] (E8, 48 h) was “significantly increased survival of DRG neurons beyond levels maintained by the single factors”.

B4: brain-derived neurotrophic factor (protein, UniProt P23560 19-247, looked up)
Neurotrophic factor BDNF …: APMKEANIRGQGGLAYPGVRTHGTLESVNGPKAGSRGLTSLADTFEHVIEELLDEDQKVRPNEENNKDADLYTSRVMLSSQVPLEPPLLFLLEEYKNYLDAANMSMRVRRHSDPARRGELSVCDSISEWVTAADKKTAVDMSGGTVTVLEKVPVSKGQLKQYFYETKCNPMGYTKEGCRGIDKRHWNSQCRTTQSYVRALTMDSKKRIGWRFIRIDTSCVCTLTIKRGR
As for B4, the “effect on DRG neuron survival when added together with GDF-5” value in experiment [1] (E8, 48 h) is listed as “synergistic or additive effects”.

B5: BMP-11: rh BMP-11, bone morphogenetic protein (protein, UniProt O95390 299-407, looked up)
Growth/differentiation factor …: NLGLDCDEHSSESRCCRYPLTVDFEAFGWDWIIAPKRYKANYCSGQCEYMFMQKYPHTHLVQQANPRGSAGPCCTPTKMSPINMLYFNDKQQIIYGKIPGMVVDRCGCS
With B5, the “survival promoting effect” value in experiment [1] (E8 chick DRG, 48 h) is given as “significant effect”.

B6: neurotrophin-4 (protein, UniProt P34130 81-210, looked up)
Neurotrophin-4: GVSETAPASRRGELAVCDAVSGWVTDRRTAVDLRGREVEVLGEVPAAGGSPLRQYFFETRCKADNAEEGGPGAGGGGCRGVDRRHWVSECKAKQSYVRALTADAQGRVGWRWIRIDTACVCTLLSRTGRA
Consider B6, for which, in experiment [1] (E8, 48 h), the “effect on DRG neuron survival when added together with GDF-5” value was “synergistic or additive effects”.

B7: oncostatin M (protein, UniProt P13725 26-221, looked up)
Oncostatin-M: AAIGSCSKEYRVLLGQLQKQTDLMQDTSRLLDPYIRIQGLDVPKLREHCRERPGAFPSEETLRGLGRRGFLQTLNATLGCVLHRLADLEQRLPKAQDLERSGLNIEDLEKLQMARPNILGLRNNIYCMAQLLDNSDTAEPTKAGRGASQPPTPTPASDAFQRKLEGCRFLHGYHRFMHSVGRVFSKWGESPNRSRR
With B7, in experiment [2], the “CG neuron survival with further addition of TGF-β” value is “did not increase the effects of these cytokines beyond background levels”. In addition, the “support of CG neuron survival by the single cytokine” value in experiment [2] (at 10 ng/ml, without TGF-β) is on record as “did not support CG neurons”.

B8: BMP-7: rh BMP-7, bone morphogenetic protein (protein, UniProt P18075 293-431, looked up)
Bone morphogenetic protein 7: STGSKQRSQNRSKTPKNQEALRMANVAENSSSDQRQACKKHELYVSFRDLGWQDWIIAPEGYAAYYCEGECAFPLNSYMNATNHAIVQTLVHFINPETVPKPCCAPTQLNAISVLYFDDSSNVILKKYRNMVVRACGCH
Regarding B8, the “survival effect as share” value in experiment [1] (E8 chick DRG, 48 h) was “approximately 35%”. In addition, the “survival … with NT-3” value in experiment [1] (E8, 48 h) is “significantly augmented the promoting effect of NT-3”.

B9: CNTF: recombinant rat (rr) CNTF, established neurotrophic factor for CG neurons (protein, UniProt P20294 1-200, looked up)
Ciliary neurotrophic factor: MAFAEQTPLTLHRRDLCSRSIWLARKIRSDLTALMESYVKHQGLNKNINLDSVDGVPVASTDRWSEMTEAERLQENLQAYRTFQGMLTKLLEDQRVHFTPTEGDFHQAIHTLMLQVSAFAYQLEELMVLLEQKIPENEADGMPATVGDGGLFEKKLWGLKVLQELSQWTVRSIHDLRVISSHQMGISALESHYGAKDKQM
Take B9: the “CG neuron survival with further addition of TGF-β” value in experiment [2] is on record as “clearly augmented the efficacy of a non-saturating concentration of CNTF”.

B10: BMP-6: rh BMP-6, bone morphogenetic protein (protein, UniProt P22004 375-513, looked up)
Bone morphogenetic protein 6: SASSRRRQQSRNRSTQSQDVARVSSASDYNSSELKTACRKHELYVSFQDLGWQDWIIAPKGYAANYCDGECSFPLNAHMNATNHAIVQTLVHLMNPEYVPKPCCAPTKLNAISVLYFDDNSNVILKKYRNMVVRACGCH
For the molecule B10, the “survival promoting effect” value in experiment [1] (E8 chick DRG, 48 h) is recorded as “significant effect”.
